US9574185B2, “Cold-adapted protease derived from Pseudoalteromonas arctica PAMC 21717 and uses thereof” (KOREA INSTITUTE OF OCEAN SCIENCE & TECHNOLOGY, priority 2014, dated 2017)

Experiments:
[1] = test system: W-Pro21717; test: Activity and stability of W-Pro21717 in the presence of metal ions and surfactants; format: biochemical, Pseudoalteromonas arctica PAMC 21717; settings: 1 mM, on ice for 1 hour
Experimental: In order to analyze the influence of metal ions and detergents, W-[…] was allowed to react with a standard buffer containing 1 mM BaCl2, CuSO4, MgSO4, CaCl2, ZnSO4, FePO4, KCl, NaCl, […], sodium linear alkylbenzene sulfonate (LAS) or SDS on ice for 1 hour. In addition, the compatibility of W-[…] with a commercial detergent (LG Household & Health Care, Korea; containing subtilisin Carlsberg) was analyzed using skim milk at temperatures of 10° C. or and 30° C.

[2] = test system: W-Pro21717; test: Reactions of W-Pro21717 with various protease inhibitors; format: biochemical, Pseudoalteromonas arctica PAMC 21717; settings: for Residual activity (%): residual activity of W-Pro21717, inhibitor 1 mM
Experimental: The reaction solution was centrifuged, and then filtered through a filter having a pore size of 0.45 μm, and the filtrate was mixed and reacted with Folin & Ciocalteu's phenol solution and 500 mM sodium carbonate solution at 37° C. for 30 minutes. Next, the enzymatic activity of the reaction product was measured at 660 nm based on an L-tyrosine standard curve, and an amino acid production of 1 nmole/min/mg at 25° C. was defined as the activity of 1 unit of protease.
The kind of W-Pro21717 was analyzed by reactions with various protease inhibitors.

[3] = Stability of W-Pro21717 as a function of temperature and pH; format: physicochemical; settings: after a reaction at 40° C. for 1 hour
[4] = Substrate specificity of R-Pro21717, synthetic peptide (oligo molecule) substrates; format: biochemical
Experimental: (§1) The substrate specificity of W-Pro21717 was analyzed using 5 mM of each of the following 7 different synthetic peptides: N-succinyl-Ala-Ala-Val-p-nitroanilide (AAV), N-succinyl-Ala-Ala-Pro-Leu-p-nitroanilide (AAPL), N-succinyl-Ala-Ala-Ala-p-nitroanilide (AAA), N-succinyl-Gly-Gly-Phe-p-nitroanilide (GGF), N-succinyl-Thr-Leu-Val-p-nitroanilide (TLV), N-succinyl-Ala-Ala-Pro-Phe-p-nitroanilide (AAPF), and N-succinyl-Ala-Ala-Val-Ala-p-nitroanilide (AAVA). W-Pro21717 was allowed to react with a standard buffer containing 0.83 mM substrate at 25° C. for 10 minutes, and then the relative activity thereof was measured at 410 nm.
In this Example, the activity of the R-Pro21717 protease in the presence of synthetic peptide substrates was analyzed.

[5] = test system: azocasein; test: Stability of R-Pro21717 against temperature and pH; format: physicochemical; settings: 1 hour at varying temperatures, then azocasein 30° C. 30 minutes
Experimental: (§2) In order to determine a temperature optimal for the activity of the protease, R-Pro21717 was allowed to react at varying temperatures of 0˜70° C., and then analyzed. The stability of R-Pro21717 against temperature was analyzed by allowing R-Pro21717 at varying temperatures of 0˜70° C. for 1 hour, and then allowing R-Pro21717 to react a 0.65% azocasein-containing standard buffer at 30° C. for 30 minutes. As a control enzyme, Carlsberg subtilisin was used.
(§3) In order to determine a pH optimal for the activity of the protease, R-Pro21717-containing buffers having varying pHs were allowed to react at 30° C., and then analyzed. The stability of R-Pro21717 against pH was analyzed by allowing R-Pro21717-containing buffers having varying pHs to react on ice for 1 hour, and then reacting R-Pro21717 in 0.65% azocasein-containing standard buffer at 30° C. for 30 minutes. Carlsberg subtilisin was used as a control enzyme and analyzed at a reaction temperature of 40° C.

[6] = Substrate specificity of W-Pro21717 with synthetic peptides (p-nitroanilides, 410 nm); format: biochemical; settings: 25° C., 10 minutes
Experimental: as §1

[7] = test system: complex substrates including collagen and keratin; test: Substrate specificity of R-Pro21717, macro molecule substrates; format: biochemical
[8] = Activity of W-Pro21717 as a function of temperature and pH; format: biochemical; settings: range 0 to 60° C. tested
Experimental: A temperature optimal for the activity of W-Pro21717 was analyzed in the temperature range of 0 to 60° C., and the optimum pH was analyzed by 1-hour reactions in 50 mM sodium acetate (pH 2.0-6.0), 50 mM potassium phosphate (pH 7.0-10.0) and 50 mM sodium tetraborate (pH 10.0). As a control, 3 μg of the commercial protease Carlsberg subtilisin was used.

[9] = test system: azocasein; test: Activity of R-Pro21717 as a function of temperature and pH; format: biochemical
Experimental: as §2, §3

[Ba+2].[Cl-].[Cl-] [Ba^2+, BaCl2]
influence on the activity of W-Pro21717 [1]: did not influence

[Ca+2].[Cl-].[Cl-] [Ca^2+, CaCl2]
influence on the activity of W-Pro21717 [1]: did not influence

O=S(=O)([O-])[O-].[Cu+2] [CuSO4]
increase of the activity of W-Pro21717 [1]: about 60%

O=C(O)CN(CCN(CC(=O)O)CC(=O)O)CC(=O)O [EDTA]
effect of inhibitor on the activity of W-Pro21717 [2]: slightly inhibited | Residual activity (%) [2]: 75 ± 9%

O=P([O-])([O-])[O-].[Fe+3] [Fe^2+, FePO4]
influence on the activity of W-Pro21717 [1]: did not influence

[Cl][Hg][Cl] [HgCl2]
effect of inhibitor on the activity of W-Pro21717 [2]: inhibited | Residual activity (%) [2]: 23 ± 8%

NC(=O)CI [Iodoacetamide]
Residual activity (%) [2]: 94 ± 3%

[Cl-].[K+] [K^+, KCl]
influence on the activity of W-Pro21717 [1]: did not influence

CC(=O)N[C@@H](CC(C)C)C(=O)N[C@@H](CC(C)C)C(=O)N[C@H](C=O)CCCNC(=N)N [Leupeptin]
Residual activity (%) [2]: 98 ± 2%

O=S(=O)([O-])[O-].[Mg+2] [Me, MgSO4]
influence on the activity of W-Pro21717 [1]: did not influence

CCN1C(=O)C=CC1=O [N-Ethylmaleimide]
Residual activity (%) [2]: 107 ± 8%

Cc1ccc(S(=O)(=O)N[C@@H](CCCCN)C(=O)CCl)cc1 [N^a-p-tosyp-L-lysine chloromethyl ketone]
Residual activity (%) [2]: 137 ± 13%

O=S(=O)([O-])[O-].[Na+].[Na+] [Na2SO4]
stability of W-Pro21717 in the presence of standard detergent components [1]: sufficient stability

[Cl-].[Na+] [Na^2+, NaCl]
influence on the activity of W-Pro21717 [1]: did not influence

O=S(=O)(F)Cc1ccccc1 [PMSF]
effect of inhibitor on the activity of W-Pro21717 [2]: inhibited | Residual activity (%) [2]: 40 ± 8%

O=S(=O)([O-])[O-].[Zn+2] [Zn^2+, ZnSO4]
influence on the activity of W-Pro21717 [1]: did not influence

APMA
Residual activity (%) [2]: 131 ± 2%

sodium linear alkylbenzene sulfonate [LAS]
stability of W-Pro21717 in the presence of standard detergent components [1]: sufficient stability

B1: Subtilisin Carlsberg: commercial protease used as control enzyme (protein, UniProt P00780 106-379, looked up)
Subtilisin Carlsberg: AQTVPYGIPLIKADKVQAQGFKGANVKVAVLDTGIQASHPDLNVVGGASFVAGEAYNTDGNGHGTHVAGTVAALDNTTGVLGVAPSVSLYAVKVLNSSGSGSYSGIVSGIEWATTNGMDVINMSLGGASGSTAMKQAVDNAYAKGVVVVAAAGNSGSSGNTNTIGYPAKYDSVIAVGAVDSNSNRASFSSVGAELEVMAPGAGVYSTYPTNTYATLNGTSMASPHVAGAAALILSKHPNLSASQVRNRLSSTATYLGSSFYYGKGLINVEAAAQ
decrease in activity [3]: 80% | Relative activity (%) ([4]; substrate AAA): 10.2 ± 1.9% | Relative activity (%) ([4]; substrate AAPF): 100% | Relative activity (%) ([4]; substrate AAPL): 57.1 ± 10.1% | Relative activity (%) ([4]; substrate AAV): 7.9 ± 3.9% | Relative activity (%) ([4]; substrate AAVA): 12.9 ± 0.6% | Relative activity (%) ([4]; substrate GGF): 16.2 ± 2.1% | Relative activity (%) ([4]; substrate TLV): 11.9 ± 1.1% | temperature at which stability / enzymatic activity decreases [5]: ≥ 50 °C | Relative activity (%) ([6]; substrate AAA): 1.5 ± 0.5% | Relative activity (%) ([6]; substrate AAPF): 100% | Relative activity (%) ([6]; substrate AAPL): 66.5 ± 0.1% | Relative activity (%) ([6]; substrate AAPL, listed as subtilisin Carlsberg): 68.3% | Relative activity (%) ([6]; substrate AAV): 2.6 ± 1.3% | Relative activity (%) ([6]; substrate AAVA): 11.7 ± 2.3% | Relative activity (%) ([6]; substrate GGF): 0% | Relative activity (%) ([6]; substrate TLV): 4.0 ± 3.7% | Relative activity (%) ([7]; substrate Azocasein): 100% | Relative activity (%) ([7]; substrate Collagen): 6.7 ± 1.2% | Relative activity (%) ([7]; substrate Keratin): 30.2 ± 5.6% | Relative activity (%) ([7]; substrate Skim milk): 67.7 ± 5.7% | temperature optimal for the activity [8]: 60 °C | temperature optimal for the activity ([9]; 0˜70° C. tested): 60 °C | proteolytic activity at low temperature compared to 60° C. ([9]; printed 'at or'): did not show proteolytic activity | pH optimum and pH stability compared with R-Pro21717 ([9]; reaction temperature 40° C.): the same results as those of R-Pro21717
